Laboratory results reported in IntAct's records for PubMed 16303566.

B1: Gigaxonin (Homo sapiens), Q9H2C0 (parent)
chain: MAEGSAVSDPQHAARLLRALSSFREESRFCDAHLVLDGEEIPVQKNILAAASPYIRTKLNYNPPKDDGSTYKIELEGISVMVMREILDYIFSGQIRLNEDTIQDVVQAADLLLLTDLKTLCCEFLEGCIAAENCIGIRDFALHYCLHHVHYLATEYLETHFRDVSSTEEFLELSPQKLKEVISLEKLNVGNERYVFEAVIRWIAHDTEIRKVHMKDVMSALWVSGLDSSYLREQMLNEPLVREIVKECSNIPLSQPQQGEAMLANFKPRGYSECIVTVGGEERVSRKPTAAMRCMCPLYDPNRQLWIELAPLSMPRINHGVLSAEGFLFVFGGQDENKQTLSSGEKYDPDANTWTALPPMNEARHNFGIVEIDGMLYILGGEDGEKELISMECYDIYSKTWTKQPDLTMVRKIGCYAAMKKKIYAMGGGSYGKLFESVECYDPRTQQWTAICPLKERRFGAVACGVAMELYVFGGVRSREDAQGSEMVTCKSEFYHDEFKRWIYLNDQNLCIPASSSFVYGAVPIGASIYVIGDLDTGTNYDYVREFKRSTGTWHHTKPLLPSDLRRTGCAALRIANCKLFRLQLQQGLFRIRVHSP

Variants of: B1
Details: with tbcb_human TBCB

effect of a mutation on the interaction | Variant
disrupting interaction | R545C
